Test [1] addresses cyTREM2 ECD (19-174)-APP-Avi (cynomolgus). Description: SET.
Test [2] concerns the target T1, hTREM2 ECD (19-174)-hFc (human) (UniProt Q9NZC2).
T1 sequence (chain, biotinylated where printed -bio): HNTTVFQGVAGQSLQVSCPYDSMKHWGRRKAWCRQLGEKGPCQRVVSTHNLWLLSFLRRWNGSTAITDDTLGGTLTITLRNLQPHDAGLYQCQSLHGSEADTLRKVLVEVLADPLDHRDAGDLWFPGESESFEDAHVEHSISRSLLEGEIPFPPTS
Briefly: SET.

Test [3] addresses T2, human TREM2 endogenously expressed (hM2A macrophages, THP1-B5 cells, iPS derived microglia) (human) (UniProt Q9NZC2).
T2 sequence (looked up): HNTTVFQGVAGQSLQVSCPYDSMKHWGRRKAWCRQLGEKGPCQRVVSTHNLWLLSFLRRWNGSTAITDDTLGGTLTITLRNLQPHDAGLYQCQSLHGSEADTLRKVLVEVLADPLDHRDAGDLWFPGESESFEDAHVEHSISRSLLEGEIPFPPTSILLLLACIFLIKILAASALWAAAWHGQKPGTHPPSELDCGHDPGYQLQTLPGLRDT
Description: FACS, hM2A. (In general: A flow cytometer gives signals particle by particle.)

For test [4], the target named is T1, hTREM2 ECD (19-174)-hFc (human). Briefly: SET screening.
Test [5] has as its target T3, human TREM2 on CHO-hDAP12-hTREM2 cells (human) (UniProt Q9NZC2).
T3 sequence: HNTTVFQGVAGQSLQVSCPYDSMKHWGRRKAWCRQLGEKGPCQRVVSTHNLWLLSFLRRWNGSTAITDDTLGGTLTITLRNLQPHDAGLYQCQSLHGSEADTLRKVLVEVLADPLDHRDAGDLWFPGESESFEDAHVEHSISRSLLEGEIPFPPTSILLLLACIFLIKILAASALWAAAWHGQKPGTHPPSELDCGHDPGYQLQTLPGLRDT
Briefly: FACS, CHO-hTREM2.

Test [6] concerns the target cynomolgus TREM2 on CHO-hDAP12-cyTREM2 cells (cynomolgus). Description: FACS, CHO-cyTREM2.
The target of test [7] is T2, human TREM2 endogenously expressed (hM2A macrophages, THP1-B5 cells, iPS derived microglia) (human). Briefly: FACS, hM2A, donor 1.
Test [8] shares this target. Description: FACS, hM2A, donor 2.
The target is the same in test [9]. Briefly: FACS, hM2A, donor 3.
The target is the same in test [10]. Description: FACS, hM2A, donor 4.
Test [11] shares this target. Description: cell-based or functional assay.
In test [12] the target is T3, human TREM2 on CHO-hDAP12-hTREM2 cells (human). Description: cell-based or functional assay.
The target in test [13] is cyTREM2 ECD (19-174)-APP-Avi (cynomolgus). Briefly: SPR, label free kinetics. A general note: Surface plasmon resonance follows binding to a sensor surface in real time, without labels.
For test [14], the target named is T1, hTREM2 ECD (19-174)-hFc (human). Briefly: SPR, label free kinetics.
The target of test [15] is cyTREM2 ECD (19-174)-hFc (cynomolgus). Briefly: recombinant protein binding.
For test [16], the target named is T1, hTREM2 ECD (19-174)-hFc (human). Description: recombinant protein binding.
Test [17] has as its target T4, hTREM2 IgSF-hTREM1 stalk-hFc (human) (UniProt Q9NZC2).
T4 sequence (looked up): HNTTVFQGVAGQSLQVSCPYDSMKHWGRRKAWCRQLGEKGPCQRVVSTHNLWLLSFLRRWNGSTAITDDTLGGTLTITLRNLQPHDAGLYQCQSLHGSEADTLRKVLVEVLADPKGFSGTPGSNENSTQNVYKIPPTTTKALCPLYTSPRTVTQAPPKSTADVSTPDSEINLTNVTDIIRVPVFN
Description: recombinant protein binding.

The target of test [18] is T2, human TREM2 endogenously expressed (hM2A macrophages, THP1-B5 cells, iPS derived microglia) (human). Briefly: FACS, hM2A, median of 4 donors.

Some results are limits rather than exact numbers.

Chain of cynomolgus TREM2 on CHO-hDAP12-cyTREM2 cells (cynomolgus) (chain, as listed by the source): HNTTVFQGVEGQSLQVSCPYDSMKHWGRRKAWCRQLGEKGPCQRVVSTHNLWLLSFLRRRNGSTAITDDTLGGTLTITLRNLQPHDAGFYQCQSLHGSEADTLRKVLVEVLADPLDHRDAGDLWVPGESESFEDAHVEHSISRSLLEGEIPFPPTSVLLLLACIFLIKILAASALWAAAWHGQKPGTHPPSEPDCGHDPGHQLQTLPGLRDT

B1: MOR044746 (antibody, from a related filing, V domains shown)
VH: QVQLQQSGPGLVKPSQTLSLTCAISGDSVSSSSAAWNWIRQSPSRGLEWLGHIGYRSKWYNEYAVSVKSRITINPDTSKNQFSLQLNSVTPEDTAVYYCARGMYGSVPYKEGYYFDIWGQGTLVTVSS
VL: DIQMTQSPSSLSASVGDRVTITCRASQGISSDLNWYQQKPGKAPKLLIYAASNLQSGVPSRFSGSGSGTDFTLTISSLQPEDFATYYCQQYTDESMTFGQGTKVEIK
The term EC50 denotes the concentration needed to bring the measured effect to its halfway point. Higher therefore signals a need for much substance. As for B1, the Kd is 4 pM in test [1]; 3 pM in test [2]; less than 0.6 nM in test [4]; 4 pM in test [13]; 3 pM in test [14]. Moreover, the EC50 in test [3] is less than 2 nM; in [5] it was 0.16 nM; in test [6], 0.65 nM; in [7] it was 0.73 nM; in [8], 0.54 nM; in test [9], 0.54 nM. Moreover, the EC50 came out at 0.64 nM in [10] and 0.59 nM in [18]. Further, the Fold TREM2 cell surface increase compared to isotype (hM2A, 100 nM) in test [11] amounted to 5.1 fold. For the same molecule, the TREM2 activation (fold in RGA) in test [11] was found to be 1.3 fold. In test [11], this molecule came in with a lowest active concentration, phagocytosis in hM2A of 1 nM. The Internalization compared to parental after 6 h in test [12] turned out to be 0.7 fold. In test [12], this molecule returned an Internalization; fold over background after 6 h of 33.3 fold. In addition, the S/BG in [15] was more than 5; in [16], more than 5; in [17] it was more than 20.

The values are drawn from patent US20230167174A1.
